From PMC4526632

Target: T1, recombinant mouse N-cadherin-Fc chimera (N-cadherin extracellular domain-Fc fusion protein) (mouse) (UniProt P15116)
T1 sequence: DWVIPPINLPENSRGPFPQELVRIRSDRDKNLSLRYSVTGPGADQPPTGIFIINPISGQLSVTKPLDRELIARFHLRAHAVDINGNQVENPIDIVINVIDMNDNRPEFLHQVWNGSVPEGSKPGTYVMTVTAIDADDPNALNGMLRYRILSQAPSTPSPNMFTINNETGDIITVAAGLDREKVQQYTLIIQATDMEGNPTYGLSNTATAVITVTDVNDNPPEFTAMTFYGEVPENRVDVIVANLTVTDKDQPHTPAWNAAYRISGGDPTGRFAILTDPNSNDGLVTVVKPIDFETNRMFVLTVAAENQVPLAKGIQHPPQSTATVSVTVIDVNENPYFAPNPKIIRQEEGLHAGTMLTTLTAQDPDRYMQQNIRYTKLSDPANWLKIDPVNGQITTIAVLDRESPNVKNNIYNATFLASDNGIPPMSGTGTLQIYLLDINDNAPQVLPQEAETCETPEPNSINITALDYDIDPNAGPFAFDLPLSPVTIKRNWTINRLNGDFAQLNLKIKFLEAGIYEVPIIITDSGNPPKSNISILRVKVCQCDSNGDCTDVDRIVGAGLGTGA

Substance “cell surface N-cadherin of ESC/iPSC-derived neural progenitor cells (from UniProt P15116 160-906) (natural protein)” has a Nanog-GFP negative cells by flow cytometry after plating dissociated iPSC-derived neurospheres on N-cad-Fc for 48 h (30% of cells on gelatin expressed Nanog) of over 97%.
